Assay results as given in the DeepSol protein solubility set.

Experiment: soluble on expression in E. coli; label from the status in PepcDB or PDB records

Soluble on expression in E. coli, not soluble:
MGSDKIHHHHHHMPRGDIGIDLGTASIIVYKRGEGIVLHEPSVVAISEKTGEIVAIGEEAKKMLGKTPEGLKAIRPMKDGVIADYRMIEAIIRNFLKKIIGRFSFVKPSLIIGVPTKITEVEKRAVFEAGLNAGARRVHIVSEPIAAAIGAGIDVMASEGNMVVDIGGGTTDIAVISLGGTVVGESVRMAGDAMDEAIVKFIRKKYGLIIGESTAEEIKKRIGKTHPAFENYEIEIKGRDVVTGLPRTDRVSSEDVREAIEPIIFALLTKLKNVLERTPPELSADIINNGIRLTGGGALLRGLDRTIYDEIHVKTIVADDPITCVARGTGILLEDEKLLKTVCETYSR
MGSDKIHHHHHHMPRVIKHPEIRREDILDHAQALFLTQGYDRASLNDVIASAGISKGAFYHYFASKEALLEALADRFARQALAGVQGVVDDPGLDPLGRLNGLLSQSRQAKIETAAEAWALFETMFRPENLVLFHRINLAANASFSPLLVKIIRQGVEDGTFRTFDPEGVADIVMQFGLATHDVVAKAIAGGSDADMEVAIEVLEKRVRLYEIALDRILGLPDGSIRIGEPGYIRAVMTARRKADKAR
MGSDKIHHHHHHMPSGGVLPVGVHATPMSVREEFDEWAASGRDKGMEDRHWHTAKDVLARMPVEDDDTVLDLGTGSGYAVRALRERGVARGYGLDGAPEMAANARTYTDDDDLAYVVGDFGSLPFADDAIDHVFSFEAFYYASDPRETLAEIRRVLKSGGTFYCGVNYYEENVHSHDWQDSISVEMTRWDRATYREAFRGAGLHVAAQDLIADTEIDIPAASEFPHEGFDSRADMVERYRTFGTLLTVGVAP
MGSDKIHHHHHHMPSPLLRRENKIKILRYILKNGKTTRNQLASNLNLAHSTLSYIIDELLDEGFLVFEEIKKKRGRPYQILSVNPEKFTAIGVKVGREEVRGVLFDARMNPLKEHRVQILSGMRNNDGYTRALRETIEQLRSENLLGVGICSSGIVKEGRVVVSHVMNVKDWDPRKVLKDLERILVMNDSDALCREISQRVNTDFLLVSYGVGIGASLWKDKKIHHIEMGHMLAASEGKCYCGQTGCLEYHSSEYAVLKSYLGKEIDFEDFITSEEEKYRQTIEELREKAREDFDSVKVHYEKAFKTFSVVLGNVIMGSGVSRVFFAGEGVVSEEMVKILEELVKVRFNRDFVGEVQFQVADANWMLGAARAVVDKYLPYIVK
MGSDKIHHHHHHMPSWFTNVQLGFDMATSLTIVGAAVTWVIREKKQAEAEKVRGINQQVRSTSLKKVQDVLFEMEDKFSVLINETQTYENMIDNRVRKVNDQLDFSRLNLAIKRDDQFLIKAIDRLQAIREELGQFYELIQVRRYSLIPLLDAIEEGDKYIGVFQQNIDEVGDAYNQVTSGNVSLLKELEAVISMLNKQFGDELVDVSDEVKKELFQKISTDETFMKPIQSIIYDEDYFYWVQRFVPAGREDDYLEKVVRPSKIEDKELCSEVMVHFILALIGKNHELISQVLRTASGSVMKARIECKDILISLSAISHKLVMDNNGETLEKVIAKYESEEYFGRNVTIR
MGSDKIHHHHHHMPVGRGVSVGLLPKSQSPLIGVDISSTAVKLLQLSRSGNRFRVEHYAVEPLPPNAVVEKNIVEVEAVGEAIRRAINRSGSKAKNAAAAVAGSAVITKLIPMPADLDDSDLEAQVELEATNYIPYPIEEVNLDFEVLGPMPNSPDMVQVLLAASRSENVELRQSALELGGLVAKVMDVEAFAVENAFALVASELPVAADAVVALVDIGATMTTLSVLRSGRSLYSREQVFGGKQLTDEVMRRYGLTYEEAGLAKRQGGLPESYEVEVLEPFKEATVQQISRLLQFFYAGSEFNRVDCIVLAGGCAALSRLPEMVEEQLGVTTVVANPLAQMTLGPKVQAHALALDAPALMIATGLALRSFD
MGSDKIHHHHHHMPVRRIALITNGYPDIYARERSFILPELKALLAYGHQVTLVPVREVTEVDPDLPDGVAVERRLAHLYRPWQLPATVLWMMFRGYFWREAWQCLGRGRLRYLGHFFKESVRATNTLRMQSALRDYDVLYTYWFKGESTGISLMPGTHARRLTRAHGYDLYEDRPNNEGYIPYREMTLPRLDRVVVLSEEARAYLEQRYPASVGRTVVSPLGVAHESDENPGPEADRIVLVSCSYPTPNKRLPLIGQLAAAVACARPSVKVVWMHFGCRREEAGLPVDFAGPPNLSVQFAGEAPNEHIRRWYATRPVSFFVNLSQSEGQPVSIMEAMAFGIPVMATGVGGIPEMLRHGGGMTLPEQPDVNAVAREMLSLLDDPSRYQAMREAARETQLAYFNTSANHRTLADLIGEF
MGSDKIHHHHHHMPYTTYRQQAVDEQTLAQTELNQYIADQAQVIAPEEYTSVEINFYYHEIYISSQLIAQIAYDHNEFVTQRWLVLVNDKEEFRANTWAKCYRYICTHHKDGSLPVQERETPAATTGNEIMVQIADECENLGLELLEDGIYRGDQKLGKAGQTNGNWWFIRTDDATQQQRFCNSASDAMWLVSRAELPEYTDTLNEYLQYRPLEQMPSVELKHLLDSAELTAA
MGSDKIHHHHHHMQAEKLMQVKDAVLKLRQQLRAGQIYQSLPSRMATLIKQLPSTVTTTVTIPSDEEVLPLIATLHEQLKKGTLTAMSDDQIKLLMAHVGSLNPLVRDQGVYYLLNEALQQQVLTPEQLGDIFDQLIQDQMLFAHIDEPQNDAIYQRSFAILLLSVLLYADHAGLKFMTPARLDLVVEQMTVYILLEKDTRGFVGTTGWAHAYTHIGNILDELADESQLARADKLLLLAALIARYQKLTTPLIFGEPERLSTYLTLITNKHELYCDYLLTAMKDWHQQLMMHTRPASEAEWTQIFNRNRLLEALALHDDLPTAVVDYLDDELEFLG
MGSDKIHHHHHHMQDTKYYEPTNIFRQPAINIKKRSDKKRILQSMMTLSTYKKTWQNNTSKMNSPILRKASDNFNDYYTTKKLKSDYWKLYGVDESELSIPSDMSIVDNILLVSTMNEKDNLKLFEISAEKKLKELQTITVPGKPITCICLLPMVDFPPQIFPSSQINPNHNQLILTGHQDGIVNLIATSTYKGCAKIIKRFNHNKFLKSTVSTSIPILEITPKTAPILKVSPWNKTGFVSLLNDSLFIYDLKSNLDCIKTPIFLQSYPGINSFAVNEFHDPFLLALVGSKFGPNGISLLDLRTNLYIPDILDNSISAGCGKDHLQRKNTSLDCVWISNHHVAQSLNDKIQIWDIQSCDGKPVCELYAKKGYIESLKFNENTGALYSSDDQGFVICWDLQNLQNMKYGELVHGFNSISLDSESELLLTKQVFQCGNIIVSGMSDKNICLKSNDTKANGKGCGFLFLDMANDGSLVTLDNFCELGLHQICQVQFNVDTGKIIDGNGTGKSGISDSSMLSLSNESDHSMTETSDDMFSNSGNWDCSSANTVSEGRLNDDQEDIVFTKRMYSVNDVHLSGSTIDTTVV
MGSDKIHHHHHHMQELCSSVVLRKHSWIQYNAMSDTVIKVEKLSKEYRLGTINHGFLFRDLQSWWARRRGKEDPNSLITTYQQHLVSDDNSRLSGGRFLALDDLTFEVRQGDALGIIGRNGAGKSTLLKIISKVTSPTSGVVKIRGRVASLLEVGTGFHPELTGRENIYLNGAISGMNKKEIKNKFDEIVAFSGVEKFIDSPVKRYSSGMYVRLAFAVAAHLGPEILIVDEVLAVGDIQFQKQCLGKMDDISKGGRTVVFVSHSLQTIASLCRECILLDQGKIKKRGLPSEVILEYLGEGGSSCADFTKLGRTVGDNFVQLVMGIVQDANNEVITEIDIREPLKISMHFTVKQDTSIRYIPNFHFTVPGGTYAFVSSPSSISELSSGNYIATCNIPGNFLNEGTYYVGLAITSYEPGMTIHFFEPNVLTFSIRDPMENCVGRYGFGYANVMPGIVRPNLDWDVRKSG
MGSDKIHHHHHHMQELLCDRGKGRHADPMQNKPDTPPLSRFHQFRTADLDEARALVARNFCGHRLERQAREDAFDACQNRAGGNGLFYNYIRYGADVEIEPGELGSFYLIQVPIRGQALIRNGRTEVETGSAIASVLNPDRHTRMRWLAGCEQVLLQIDRNRLTAVAETLTGTALQSPVRFDPQIDRARPEMQRWLALFRRAVSAVDHGALLDPDQALSRALVEDELIAGFLRAQPSSIAPLLERPETGPLSPHVRRARDFMQAHLADPLTLSQIAAAAGTSPRNLQLGFSQLLEMTPLAYLRVLRLNYARYLLRESPPQVTIASIAGAAGFSHLGRFSAQYAARFGEGPSQTRKQHYLI
MGSDKIHHHHHHMQFEMHDHVKGKAMSYPVTSQPQCANTCYQTQLSDWHTGLTDCCNDMPVCLCGTFAPLCLACRISDDFGECCCAPYLPGGLHSLRTGMRERYHIQGSVGHDWAALTFCLPCALCQMARELKIRE
MGSDKIHHHHHHMQFGAKPLFENISVKFGGGNRYGLIGANGCGKSTFMKILCGDLDPSGGNVSLDVNERLGKLSQNQFGYEEFNLIDTVIMGHRELWKVKQERDRIYSLPEMSEEDGITVANLEMDFAEMDGYTAESRAGELLLGVGIGIDSHFGLMSEIAPGLKLRVLLAQALFSDPDVLLLDEPTNNLDIDTIRWLQDMLNQRSSTMVIISHDRYFLNSVCTHMADLDYGELRVYPGNYDEYMQAATQARERLLSDNAKKKAQISELQTFVARFSANASKAKQATSRARQIDKIKLDEVKASSRVNPFIRFEQEKKLFRNALVIENLTKGYDTPLFKDLNLIVEVGERIAVLGENGVGKTTLLRTLIHDIPQDAGTIQWSENANIGYYAQDHESDFANEMTLFEWMSQWRKPEDDDQSVRGILGRMLFGSDDIKKSVKVLSGGEKGRMLFGKLIMQKANILVLDEPTNHMDMESIESLNNALEMYEGTLIFVSHDRAFVSSLANRILEVTHTGVNDFRGTYDEFLASKGIEV
MGSDKIHHHHHHMQIGEVYFWTSTIKDWKNLLHQDKYKLLIIHCLKELVDRKMIKVYAFVIMPNHIHIVWEMLDQNGKEMPHASFNKKTAHEIVKDLKFNHPLVLPFFKVNEKEREYRIWQRDPLAIEMDSKKKAEQKIDYIHKNPLHERWNLAASPEEYYWSSAMYYQTGEDKFGFLTHYMERF
MGSDKIHHHHHHMQIRADFDSGNIQVIDASDPRRIRLAIRPDLASQHFQWFHFKVEGMAPATEHCFTLVNAGQSAYSHAWSGYQAVASYDGERWFRVPSQYDADGLHFQLEPEESEVRFAYFEPYSRERHARLVERALGIEGVERLAVGTSVQGRDIELLRVRRHPDSHLKLWVIAQQHPGEHMAEWFMEGLIERLQRPDDTEMQRLLEKADLYLVPNMNPDGAFHGNLRTNAAGQDLNRAWLEPSAERSPEVWFVQQEMKRHGVDLFLDIHGDEEIPHVFAAGCEGNPGYTPRLERLEQRFREELMARGEFQIRHGYPRSAPGQANLALACNFVGQTYDCLAFTIEMPFKDHDDNPEPGTGWSGARSKRLGQDVLSTLAVLVDELR
MGSDKIHHHHHHMQKDKIKTDWSHGENPEDYKCCVAFHGHDCPGLAVGYRAAQAALAALCGERAEDEELVAIVETDACGVDALQVLTGCTFGKGNLIYQDHGKHVFTLIERKSGRGVRVALKAGVMEMNERHLTLMEKVHQMTATPHETAEFWKIHSQKALEILQKPIETLFNIQPINRTLPPKARREPSRLCARCGEPAMGSKLVVLDGREVCRDCLQPEER
MGSDKIHHHHHHMQLKLSSVSKKFDHKIILEDTSFTFEQGKIYGLLGRNGAGKTTLFNCIARNLTLDGGSIQFVKDEIAFDYDNTDIGFTQTYPQLPAFMTAYEFVRFYMDIHKDKLKSPRSPEEWLNLVGIGEEDRHRLLKDFSHGMQNKVQLLLSLIVQPPVLLLDEPLTSFDPVAAHEFKQLIREAKKDSVIIFSTHILQLAQDLCDEIVLLHHQELQAVPSDKLHDPDFEQEVVTLLTAD
